The source of these data is paper PMC3509593, “Role of Key Residues at the Flavin Mononucleotide (FMN):Adenylyltransferase Catalytic Site of the Bifunctional Riboflavin Kinase/Flavin Adenine Dinucleotide (FAD) Synthetase from Corynebacterium ammoniagenes” (International Journal of Molecular Sciences, 2012).

Read-outs that look alike come from different tables or passages of the source.

The target of data set [1] is T1, CaFADS (Corynebacterium ammoniagenes, UniProt Q59263).
T1 construct: made in house; host or cells: E. coli (pET28a-CaFADS plasmid)
Also on record: method as in PMID 22892871. The settings on record: FMNAT activity; 37 °C, 20 mM PIPES, 10 mM MgCl2, pH 7.0; cited from earlier work.

The nature of data set [2]: Thermal denaturation by differential scanning calorimetry (DSC). It counts as physicochemical. The settings on record: 20 mM PIPES, 10 mM MgCl2, pH 7.0. On the procedure:
Thermal stability was determined with a VP-DSC microcalorimeter (MicroCal LLC, Northampton, MA, USA). Protein samples and reference solutions were degassed and carefully loaded into the cells to avoid bubble formation. The baseline of the instrument was routinely recorded before the experiments with both cells filled with buffer. […] Errors in the Tm,app data are within ±0.3–0.5 °C.

In data set [3] the test system is CaFADS. As to conditions: 25 °C; for Kd: 20 mM PIPES pH 7.0. On the procedure:
Measurements were carried out using a high precision VP-ITC (MicroCal LLC, Northampton, MA, USA) following the procedure described previously. Typically, 200 μM FAD or FMN and 300 μM ATP solutions were used to titrate ~20 μM CaFADS. Ligand and CaFADS were dissolved in 20 mM PIPES, pH 7.0, at the indicated MgCl2 concentration. Control titrations were performed by injecting ligand into buffer solution. The association constant, the enthalpy change (ΔH) and the stoichiometry, or their average values, were obtained through non-linear regression of the experimental data to a home derived model for one or two independent binding sites implemented in Origin 7.0 (OriginLab Corporation, Northampton, MA, 2002) (see Supplementary Material). The Kd, the free energy change (ΔG), and the entropy change (ΔS) were obtained from basic thermodynamic relationships. Experiments were performed in duplicate or triplicate.
The association constant (Ka), the enthalpy change (ΔH) and the stoichiometry (N), or their average values, were obtained through non-linear regression of the experimental data to a model for one or two independent binding sites implemented in Origin 7.0 (OriginLab Corporation, Northampton, MA, USA, 2002).
The nominal protein concentration was normalised by a factor n (nP0, instead of P0) accounting for either the stoichiometry or the fraction of active (binding-competent) protein.

Data set [4] concerns CaFADS. The settings on record: FADpp activity; 37 °C, 20 mM PIPES, 10 mM MgCl2, pH 7.0.
Description: The CaFADS FMNAT and FADpp activities were fluorimetrically measured using a continuous assay. […] Measurements were performed in a Cary Eclipse spectrophotofluorimeter with excitation and emission wavelengths at 420 nm and 530 nm, respectively. FAD and FMN fluorescence were individually calibrated using standard solutions. The rate of FAD formation was calculated from the rate of fluorescence decrease (ΔF/Δt), measured as the tangent to the initial part of the experimental curve by applying the equation:
where ΔF is the decrease in the value of the fluorescence expressed in arbitrary units, Δt is the measurement of reaction time expressed in per minute, and KFMN and KFAD are the FMN and FAD fluorescent rate constants expressed in per micromolar [37]. The kinetic data obtained for one substrate at saturated concentrations of the second one were interpreted using the Michaelis-Menten kinetic model.
In data set [5] the target is T1, CaFADS. As to conditions: RFK activity, cited from earlier work.
Where [6] appears, read: ligand ATP, 10 mM Mg^2+, pH 7.0.
Where [7] appears, read: ligand FAD, 10 mM Mg^2+, pH 7.0.
[8] abbreviates: ligand FMN, 10 mM Mg^2+, pH 7.0.

B1: WT: wild-type FAD synthetase from Corynebacterium ammoniagenes (CaFADS), over-expressed in E. coli (protein)
chain: MDIWYGTAAVPKDLDNSAVTIGVFDGVHRGHQKLINATVEKAREVGAKAIMVTFDPHPVSVFLPRRAPLGITTLAERFALAESFGIDGVLVIDFTRELSGTSPEKYVEFLLEDTLHASHVVVGANFTFGENAAGTADSLRQICQSRLTVDVIDLLDDEGVRISSTTVREFLSEGDVARANWALGRHFYVTGPVVRGAGRGGKELGFPTANQYFHDTVALPADGVYAGWLTILPTEAPVSGNMEPEVAYAAAISVGTNPTFGDEQRSVESFVLDRDADLYGHDVKVEFVDHVRAMEKFDSVEQLLEVMAKDVQKTRTLLAQDVQAHKMAPETYFLQAES
Regarding B1, in the data set with CaFADS [1], the turnover number (kcat) was 0.283 s⁻¹. The “Tm,app” value in data set [2] was 42.5 °C. Besides, in the data set with CaFADS [3] (ligand ATP, 0 mM Mg^2+, pH 7.0), the “ΔG FADS:ATP” value was -7.2 kcal/mol, the “ΔH FADS:ATP” value is -31 kcal/mol and the “−TΔS FADS:ATP” value came out at 24 kcal/mol. Further, in the data set with CaFADS [3] (setting [6]), the “ΔG FADS:ATP” value was -6.2 kcal/mol, the “ΔH FADS:ATP” value is -30 kcal/mol and the “−TΔS FADS:ATP” value stood at 23 kcal/mol. For the same molecule, in the data set on CaFADS [3] (setting [7]), the “ΔG FADS:FAD” value was -8.4 kcal/mol, the “ΔH FADS:FAD” value was -26 kcal/mol and the “−TΔS FADS:FAD” value was 18 kcal/mol. Further, in the data set with CaFADS [3] (setting [8]), the “ΔG FADS:FMN” value was -7.0 kcal/mol, the “ΔH FADS:FMN” value is -35 kcal/mol and the “−TΔS FADS:FMN” value is given as 28 kcal/mol. Moreover, the Kd on CaFADS [3] (read-out: Kd FADS:ATP (average, Kd,av^ATP:Mg, for two ATP:Mg^2+ binding sites), ligand ATP, 10 mM Mg^2+) came to 30 µM. Moreover, the dissociation constant (Kd) on CaFADS [3] (read-out: Kd FADS:ATP, ligand ATP, 0 mM Mg^2+) came to 5.5 µM. Moreover, the dissociation constant (Kd) on CaFADS [3] (read-out: Kd FADS:FAD, ligand FAD, 10 mM Mg^2+) was 0.7 µM. Moreover, the Kd at CaFADS [3] (read-out: Kd FADS:FMN, ligand FMN, 10 mM Mg^2+) amounted to 7.8 µM. Also, the kcat in the data set on CaFADS [4] amounted to 0.217 s⁻¹. Further, the “kcat (apparent)” value in the data set with CaFADS [5] (saturated ATP, varying RF, 37 °C, 0.8 mM MgCl2, pH 7.0) is 5.02 s⁻¹. Besides, in the data set with CaFADS [5] (varying ATP, RF concentration exhibiting ~80% maximal activity), the “kcat (apparent)” value was 1.13 s⁻¹.
